From patent US10766960 (dated 2020) come the findings set out here.

Positions count from the first letter of the chain named.

As usually defined, the Kd is a measure of binding affinity in units of concentration. Read a high Kd as a looser complex.

What all share (experiment): SPR
Assay [1] concerns the target T1, FcgRIa (human, UniProt P12314).
T1 chain: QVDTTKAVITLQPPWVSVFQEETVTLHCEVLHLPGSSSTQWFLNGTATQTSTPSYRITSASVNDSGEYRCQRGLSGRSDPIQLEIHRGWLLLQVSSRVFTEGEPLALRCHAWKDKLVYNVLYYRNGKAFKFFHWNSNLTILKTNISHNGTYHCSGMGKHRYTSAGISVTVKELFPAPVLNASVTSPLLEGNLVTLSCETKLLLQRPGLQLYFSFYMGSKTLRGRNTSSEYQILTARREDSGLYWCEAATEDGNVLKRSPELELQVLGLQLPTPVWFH

For assay [2], the target named is T2, FcgRIIa R (human, UniProt P12318).
T2 chain: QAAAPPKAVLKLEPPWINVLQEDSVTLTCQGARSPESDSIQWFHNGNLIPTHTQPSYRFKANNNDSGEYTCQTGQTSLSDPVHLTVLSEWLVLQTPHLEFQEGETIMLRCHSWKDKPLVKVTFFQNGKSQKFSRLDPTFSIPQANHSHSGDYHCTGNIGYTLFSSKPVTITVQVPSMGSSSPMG

Assay [3] addresses T3, FcgRIIb (human, UniProt P31994).
T3 chain: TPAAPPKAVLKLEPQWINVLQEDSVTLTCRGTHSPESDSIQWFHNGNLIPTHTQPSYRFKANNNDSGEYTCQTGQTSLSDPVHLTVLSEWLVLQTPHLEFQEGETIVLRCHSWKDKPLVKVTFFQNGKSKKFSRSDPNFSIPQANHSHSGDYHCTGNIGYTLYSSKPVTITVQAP

Assay [4] has as its target FcgRIIIa F (human, UniProt P08637).
Assay [5] deals with FcgRIIIa V (human, UniProt P08637).
FcgRIIIa V, sequence (P08637 17-208 F176V): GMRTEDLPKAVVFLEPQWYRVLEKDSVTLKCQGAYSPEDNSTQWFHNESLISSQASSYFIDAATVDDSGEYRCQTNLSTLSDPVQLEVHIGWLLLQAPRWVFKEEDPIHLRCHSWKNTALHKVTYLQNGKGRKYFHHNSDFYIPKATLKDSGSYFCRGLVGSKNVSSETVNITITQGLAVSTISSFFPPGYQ
In assay [6] the target is T4, FcgRIIa H (human, UniProt P12318).
T4 chain: T2 chain with R134H

FcgRIIIa F, sequence (P08637 17-208): as the sequence (P08637 17-208 F176V) above, with V160F counted along it

B1: H240-Kn216/H240-Hl068/L73-k0 (antibody)
chain 1: QDQLVQSGAEVKKPGASVKVSCKASGFNIKDTYIQWVRQAPGQGLEWMGRIDPLRKQTKYREKFEGRVTITADTSTNTAYMELSSLRSEDTAVYYCVRSGREFDYWGQGTLVTVSSASTKGPSVFPLAPSSKSTSGGTAALGCLVKDYFPEPVTVSWNSGALTSGVHTFPAVLQSSGLYSLSSVVTVPSSSLGTQTYICNVNHKPSNTKVDKKVEPKSCDKTHTCPPCPAPEVYWGPMVFLFPPKPKDTLMISRTPEVTCVVVDVSDEDPEVKFNWYVDGVEVHNAKTKPREEQYNATYRVVSVLTVLHQDWLNGKEYKCKVSNKDLPAPIEKTISKAKGQPREPQVCTLPPSRDELTKNQVSLWCLVKGFYPSDIAVEWESNGQPENNYKTTPPVLDSDGSFFLYSKLTVDKSRWQQGNVFSCSVMHEALHNHYTQKSLSLSP
chain 2: QDQLVQSGAEVKKPGASVKVSCKASGFNIKDTYIQWVRQAPGQGLEWMGRIDPLRKQTKYREKFEGRVTITADTSTNTAYMELSSLRSEDTAVYYCVRSGREFDYWGQGTLVTVSSASTKGPSVFPLAPSSKSTSGGTAALGCLVKDYFPEPVTVSWNSGALTSGVHTFPAVLQSSGLYSLSSVVTVPSSSLGTQTYICNVNHKPSNTKVDKKVEPKSCDKTHTCPPCPAPELLGGPSVFLFPPKPKDTLMISRTPEVTCVVVDVSHEEPEVKFNWYVDGVEVHNAKTKPREEQYNSTYRVVSVLTVLHQDWLNGKEYKCKVSNDALPKPIEETISKAKGQPREPQVYTLPPSRCELTKNQVSLSCAVKGFYPSDIAVEWESNGQPENNYKTTPPVLDSDGSFFLVSKLTVDKSRWQQGNVFSCSVMHEALHNHYTQKSLSLSP
chain 3: DIQMTQSPSSLSASVGDRVTITCRASQDIHKYIAWYQQKPGQAPRLLIQYTSTLQPGVPSRFSGSGSGTDYTFTISSLQPEDIATYYCLQYEQLRTFGGGTKVEIKRTVAAPSVFIFPPSDEQLKSGTASVVCLLNNFYPREAKVQWKVDNALQSGNSQESVTEQDSKDSTYSLSSTLTLSKADYEKHKVYACEVTHQGLSSPVTKSFNRGEC
For the molecule B1, the Kd came out at 0.17 nM in assay [1]; 23 nM in assay [2]; 160 nM in assay [3]; 3.4 nM in assay [4]; 0.46 nM in assay [5]; 32 nM in assay [6].

B2: H240-Kn215/H240-Hl076/L73-k0 (antibody)
chain 1: B1 chain 1 with V233H, Y234Q, D269E, D326A
chain 2: B1 chain 2 with K329M
chain 3: B1 chain 3
Consider B2, for which the Kd in assay [1] was 0.089 nM; in assay [2] it was 1000 nM; in assay [3] it was 6100 nM; in assay [4] it was 2.6 nM; in assay [5], 0.68 nM; in assay [6], 250 nM.

B3: H240-Kn220/H240-Hl068/L73-k0 (antibody)
chain 1: B1 chain 1 with V233M
chain 2: B1 chain 2
chain 3: B1 chain 3
In the case of B3, the Kd in assay [1] came out at 0.15 nM; in assay [2] it was 25 nM; in assay [3], 160 nM; in assay [4] it was 3.5 nM; in assay [5], 0.5 nM; in assay [6] it was 34 nM.

B4: H240-Kn208/H240-Hl076/L73-k0 (antibody)
chain 1: B1 chain 1 with V233D, Y234Q, D269E, D326A
chain 2: B1 chain 2 with K329M
chain 3: B1 chain 3
Regarding B4, the Kd in assay [1] was 0.1 nM; in assay [2], 500 nM; in assay [3] it was 3200 nM; in assay [4], 1.8 nM; in assay [5] it was 0.4 nM; in assay [6], 310 nM.

B5: H240-Kn211/H240-Hl076/L73-k0 (antibody)
chain 1: B1 chain 1 with V233M, Y234Q, D269E, D326A
chain 2: B1 chain 2 with K329M
chain 3: B1 chain 3
Turning to B5, the Kd in assay [1] turned out to be 0.084 nM; in assay [2], 550 nM; in assay [3], 4200 nM; in assay [4], 1.9 nM; in assay [5] it was 0.52 nM; in assay [6], 200 nM.
